The values below come from the nanobody polyreactivity screen of Harvey et al. (2022).

The series can be described thus: yeast display, Sf9 membrane polyspecificity reagent, FACS + sequencing; frameworks hold sequencing errors. The essentials: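 Galactose induction of a Saccharomyces cerevisiae BJ5465 synthetic nanobody display library ran 36–48 hours. The cells were then stained for 1 hour at 4 °C with 10% biotinylated, detergent-solubilized Sf9 membrane reagent, pulled down on streptavidin microbeads and FACS-sorted into low and high (top ~1%) gates on expression and reagent-binding fluorescence. Labels for polyreactivity follow the gate of origin.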
For the sequence “QVQLVESGGGLVQAGGSLRLSCAASGFIFSYNAMGSYRQAPGKERELVAAISRRGGSTYYADSVKGRFTISRDNAKNTVYLQMNSLKPEDTAVYYCAAKSYLDSSGTFNYWGQGTQVTVSS”, the “polyreactivity (PSR sort gate)” value was “high polyreactivity”.

For “QVQLVESGGGLVQAGGSLRLSCAASGFIFSYYAMGWYRPAPGKERELVAAITDSGGSTYYADSVKGRFTISRDNAKNSVYLQMNSLKPEYTAVYYCATEIEQTAEYDYLGQGTQVTVSS”, the “polyreactivity (PSR sort gate)” value is “low polyreactivity”.

Consider “QVQLVESGGGLVQAGGSLRLSCAASGFIFSYYAMGWYRQAPGKERELVAAINYSGGRTYYADSVKGRFTISRDYAKNTVYLQMNSLKPEDTAVYYCNAVTFGRRAFDYWGQGTQVTVSS”, for which the “polyreactivity (PSR sort gate)” value is reported as “high polyreactivity”.

On to “QVQLVESGGGLVQAGGSLRLSCAASGFIFSYYAMGWYRQAPGKERELVAAISSSGGTTYADSVKGRFTISRDNAKNTVYLQMNSLKPEDTAVYYCARVQYWFYKPMYYWGQGTQVNVSS”, for which the “polyreactivity (PSR sort gate)” value is “high polyreactivity”.

Turning to “QVQLVESGGGLVQAGGSLRLSCAASGFIFSYYAMGWYRQAPGKERELVATITSGGSTNYADSVKGRFTISRDNAKNTVYLQMNSLKPEVTAVNYCATRKYRVPRSYDWGQGTQVTVTS”, the “polyreactivity (PSR sort gate)” value was “high polyreactivity”.

Regarding “QVQLVESGGGLVQAGGSLRLSCAASGFIFSYYTMGWYRQAPGKESELVAAISYSGGSTDYADSVKWRFTISRDNAKNTVYLQMNSLKPEDTAVYYCNADYSFWAEPYWEYGYDYWGQGTQVTVSS”, the “polyreactivity (PSR sort gate)” value was “low polyreactivity”.

As to “QVQLVESGGGLVQAGGSLRLSCAASGFIFTDNAMGWYRQAPGKERELVAAISKNGGSTYYADSVKGRFTISRDNAKNTVYLQMNSLKPDDTAVYYCNAVRRDSGTYRSPDTTRYDYWGQVTQVTVSS”, the “polyreactivity (PSR sort gate)” value is recorded as “high polyreactivity”.

As for “QVQLVESGGGLVQAGGSLRLSCAASGFIFTDYAMGWYRQAPGKERELVATISWSGSSTYYADSVKGRFTISRDNAKNTVYLQMNSLKPEDTAVYYCAAEFWYTYPYLVDYWGQGTKVTVSS”, the “polyreactivity (PSR sort gate)” value was “low polyreactivity”.

“QVQLVESGGGLVQAGGSLRLSCAASGFIFTFYAMGWYRQAPGKEREFVASIDWGDGSTYYADSVKGRFTISRDNAKNTVYLQMNSLKPEDTAVYYCAHDYDGYVWDTEYDYWGQGTQVTVSS”: the “polyreactivity (PSR sort gate)” value was “low polyreactivity”.

On to “QVQLVESGGGLVQAGGSLRLSCAASGFIFTGNVMGWYRQAPGKERELVAAITSSGGSTYYADSVKGRFTISRDNAKNTVYLQMNSLKPEDTAVYYCATRYGGRYYWGQGTQVTVSS”, for which the “polyreactivity (PSR sort gate)” value is “high polyreactivity”.

With “QVQLVESGGGLVQAGGSLRLSCAASGFIFTGYAMGWYRQAPGKERELVAAITRNGGSTYYADSVKGRFTISRDNAKNSVYLQMNSLKPEDTAVYYCAARGNRVSPEYYYWGQGTQVTVSS”, the “polyreactivity (PSR sort gate)” value is reported as “high polyreactivity”.

As for “QVQLVESGGGLVQAGGSLRLSCAASGFIFTGYTMGWYRQAPGKERELVAAISYRGGSTYYSDSVKGRFTISRDNAKNTVYLQMNSLKPEDTEVYFCAAESIYFYEYDYWGQGTQVTVSS”, the “polyreactivity (PSR sort gate)” value was “high polyreactivity”.

For the sequence “QVQLVESGGGLVQAGGSLRLSCAASGFIFTIYAMGWYRQAPRKERELVAAITWNGGRTYYADSVKGRFTISRDNAKNTVYLQMISLKPEDTAVYYCAARYGRAYDYWGQGTQVTVSS”, the “polyreactivity (PSR sort gate)” value is reported as “high polyreactivity”.

“QVQLVESGGGLVQAGGSLRLSCAASGFIFTKNTMGWYRQAPGKEREWVAAISRGGSTYYADSVKGRFTISRDNAKNTVYLQMNSLKPEDTAVYYCAALYNSTKYGVYTNGPQAEYDYWGQGTQVTVSS”: the “polyreactivity (PSR sort gate)” value was “high polyreactivity”.

With “QVQLVESGGGLVQAGGSLRLSCAASGFIFTLYAMGWYRQAPGKERELVASIRGSGGNTYYADSVKGRFTISRDNAKNTVYLQMNSLKPEDTAVYYCAARTYRRPYYSWGQGTQVTVSS”, the “polyreactivity (PSR sort gate)” value is recorded as “high polyreactivity”.

For the sequence “QVQLVESGGGLVQAGGSLRLSCAASGFIFTPYAKGWYRQAPGKERELVAAISSGGSTYADSVKGRFTISRDNAKNTVYLQMNSLKPEDTAVYYCAAYYTGYSTTYYYWGQGTQVSVSS”, the “polyreactivity (PSR sort gate)” value is given as “low polyreactivity”.

As to “QVQLVESGGGLVQAGGSLRLSCAASGFIFTPYAMGWYRQAPGKERELVAAISRSAGSTYYADSVKGRFTISRDNAKNTVYLQMNSLKPEDTAVYYCAADSLTYIAYDYWGQGTQVTVSS”, the “polyreactivity (PSR sort gate)” value was “high polyreactivity”.

Take “QVQLVESGGGLVQAGGSLRLSCAASGFIFTQYTMGWYRQAPGKERELVAAISFSDSSTYYADSVKGRFTISRDNAKNTVYLEMNSLKPEDTAVYFCAADYSVTLRIGGYYWFYAFDYWGQGTQVTVSS”: the “polyreactivity (PSR sort gate)” value is listed as “low polyreactivity”.

Regarding “QVQLVESGGGLVQAGGSLRLSCAASGFIFTRYAMGWYRPAPGKERELVAAISASGGSTYYADSVKGRFTISRDNAKNTVYLQMNSLKPEDTAVYYCAAGGSWFRYPPRMDYWGQGTQVTVSS”, the “polyreactivity (PSR sort gate)” value was “high polyreactivity”.

“QVQLVESGGGLVQAGGSLRLSCAASGFIFTRYAMGWYRQAPGKERELVAAISWIGTSTYYADSVKGRFTISRDNAKNTVYLQMNSLKPEDTAVYYCNALRYSTGRPGFYLGYDYWGQGTQVTVSS”: the “polyreactivity (PSR sort gate)” value is on record as “high polyreactivity”.

Take “QVQLVESGGGLVQAGGSLRLSCAASGFIFTRYVMGWYRQAAGKERELVAAISRIGASTYYADSVKGRFTISRDNAKNNFYLQMNCLNPEATAVYYCKVVSGGYCEYDYWGHGTQVTVSS”: the “polyreactivity (PSR sort gate)” value was “high polyreactivity”.

As to “QVQLVESGGGLVQAGGSLRLSCAASGFIFTTNAMGWYRQAPGKERELVAAITRSGGSTYADSVKGRFTISRDNAKNTVYLQMNSLKPEDTAVYYCNADWAGVYTSYEYDYWGQGTQVTVSS”, the “polyreactivity (PSR sort gate)” value is recorded as “low polyreactivity”.

On to “QVQLVESGGGLVQAGGSLRLSCAASGFIFTWYAMGWYRQAPGKEREFVAGISRSGGRTYYADSLKGRFTISRDNAKNTVYLQMNSQKPEDTAVYDCNAVLVGYRPYREFDHWGQGTQVTVSS”, for which the “polyreactivity (PSR sort gate)” value was “high polyreactivity”.

In the case of “QVQLVESGGGLVQAGGSLRLSCAASGFIFTYYAMGWYRQAPGKERELVAAITSGGSTNYADSVKGRFTISRDNAKITVYLQMNSLKPEDTAVYYCASRIYYGRFWYDYWGQGTQVTVSS”, the “polyreactivity (PSR sort gate)” value is “high polyreactivity”.

Regarding “QVQLVESGGGLVQAGGSLRLSCAASGFIFTYYAMGWYRQAPGKERELVAVISWSGGTTYYADSVKGRFTISRDNAKNTVYLQMNSLKPEDTAVYYCNADRSLLYSRKIEYDYWGQGTQVTVSS”, the “polyreactivity (PSR sort gate)” value is “low polyreactivity”.

Regarding “QVQLVESGGGLVQAGGSLRLSCAASGFIFVDYAMGWYRQAPGKERELVAAISSSGSTTYADSVKGRFTISRDNAKNIVYLKMNSLKPEDTAVYYCAAGLPRVLKDATFDYWGQGTQVTVSS”, the “polyreactivity (PSR sort gate)” value is listed as “low polyreactivity”.

With “QVQLVESGGGLVQAGGSLRLSCAASGFIFVFNTMGWYRQAPGKERELVAAISVSGDSTYADSVKGRFTISRDNAKNTVYLQMNSLKPEDTAVYYCNAGSTELGWTWELDYWGQGTQVNVSS”, the “polyreactivity (PSR sort gate)” value is on record as “high polyreactivity”.

With “QVQLVESGGGLVQAGGSLRLSCAASGFIFVIYGMGWYRQAPGKERELVAAISRGGSTYADSVKGRFTISRDNAKNTVYLQMNSLKPEDTAVYYCNARLYKRGGFGYYYWGQGTQVTVSS”, the “polyreactivity (PSR sort gate)” value is “high polyreactivity”.

As to “QVQLVESGGGLVQAGGSLRLSCAASGFIFVLYTMGWYRQAPGKEREMVASITQSGGSTYYADSVKGRFTISRDNAKNTVYLQMNSLKPEDTAVYYCAAVWAHEWWELDYWGQGTQVTVSS”, the “polyreactivity (PSR sort gate)” value was “low polyreactivity”.

With “QVQLVESGGGLVQAGGSLRLSCAASGFIFVPYTMGWYRQAPGKERELVATINSNGGSTYYADSVKGRFTISRDNAKNTVYLQMNSLKPEDTAVYYCAAYYRWIGGRYTPYYYWGQGTQVTVSS”, the “polyreactivity (PSR sort gate)” value is on record as “high polyreactivity”.
